Data published in publication PMC4452151 (Cancer Science, 2015).

Legend:
[1] = biological target: CD3 on T cells (Homo sapiens (endogenous, Jurkat cells …, UniProt P07766)); assay: flow cytometry on cells
[2] = biological target: recombinant human CD138 protein (Homo sapiens (Human)., UniProt P18827, biotin (in the bio-layer interferometry experiment only)); assay: BLI
recombinant human CD138 protein, sequence (P18827 23-254): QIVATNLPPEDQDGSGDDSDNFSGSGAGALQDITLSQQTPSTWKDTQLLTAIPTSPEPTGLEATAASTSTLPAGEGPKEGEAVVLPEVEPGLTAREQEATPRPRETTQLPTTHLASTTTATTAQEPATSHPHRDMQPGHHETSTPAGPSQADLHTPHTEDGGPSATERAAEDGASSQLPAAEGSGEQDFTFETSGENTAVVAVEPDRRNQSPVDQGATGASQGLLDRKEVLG

CD3 on T cells (Homo sapiens, sequence (P07766 23-207): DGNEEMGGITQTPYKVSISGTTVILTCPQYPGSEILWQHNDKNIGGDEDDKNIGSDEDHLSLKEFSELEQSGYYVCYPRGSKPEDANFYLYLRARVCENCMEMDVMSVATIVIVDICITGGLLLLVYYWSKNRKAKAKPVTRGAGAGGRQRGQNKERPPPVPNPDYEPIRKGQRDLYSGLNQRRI

B1: aCD138-ScFv-hIgFc (scFv, V domains shown)
VH: QVQLQQSGSELMMPGASVKISCKATGYTFSNYWIEWVKQRPGHGLEWIGEILPGTGRTIYNEKFKGKATFTADISSNTVQMQLSSLTSEDSAVYYCARRDYYGNFYYAMDYWGQGTSVTVSS
VL: DIQMTQSTSSLSASLGDRVTISCSASQGINNYLNWYQQKPDGTVELLIYYTSTLQSGVPSRFSGSGSGTDYSLTISNLEPEDIGTYYCQQYSKLPRTFGGGTKLEIK
- binding result [1]: no binding (tested: 10 μg/mL)
- Kd [2]: 13.5 nM
